# From PMC10397247
# Like-named read-outs stand apart in the source and are kept apart here.
# T1: 4H3165-AA
# T1 chain: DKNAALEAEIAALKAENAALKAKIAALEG
# T2: 4H3009-AA
# T2 chain: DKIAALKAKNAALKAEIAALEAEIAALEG
# T3: 4H2698-AA
# T3 chain: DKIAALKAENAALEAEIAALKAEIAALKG
# T4: 4H94-AA
# T4 chain: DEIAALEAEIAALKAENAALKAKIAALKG
# T5: 4H3753-AA
# T5 chain: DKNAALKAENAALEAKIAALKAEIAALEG
# T6: 4H3410-AA
# T6 chain: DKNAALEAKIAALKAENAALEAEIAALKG
# T7: 4H3697-AA
# T7 chain: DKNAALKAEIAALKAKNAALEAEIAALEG
# T8: 4H3865-AA
# T8 chain: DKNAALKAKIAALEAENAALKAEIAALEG
# T9: 4H458-AA
# T9 chain: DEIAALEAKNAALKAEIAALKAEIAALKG
# T10: 4H710-AA
# T10 chain: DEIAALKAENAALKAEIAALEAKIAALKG
# T11: 4H2473-AA
# T11 chain: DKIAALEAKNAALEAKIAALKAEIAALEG
# T12: 4H850-AA
# T12 chain: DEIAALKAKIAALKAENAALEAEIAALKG
# T13: 4H310-AA
# T13 chain: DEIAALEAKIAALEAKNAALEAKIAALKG
# T14: 4H3120-AA
# T14 chain: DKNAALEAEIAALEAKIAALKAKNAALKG
# T15: 4H2389-AA
# T15 chain: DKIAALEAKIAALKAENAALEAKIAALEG
# T16: 4H2274-AA
# T16 chain: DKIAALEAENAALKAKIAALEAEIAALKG
# T17: 4H797-AA
# T17 chain: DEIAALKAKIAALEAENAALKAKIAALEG
# T18: 4H2330-AA
# T18 chain: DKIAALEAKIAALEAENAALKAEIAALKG
# T19: 4H3590-AA
# T19 chain: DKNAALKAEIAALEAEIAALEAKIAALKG
# T20: 4H2438-AA
# T20 chain: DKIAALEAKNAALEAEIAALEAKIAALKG
# T21: 4H629-AA
# T21 chain: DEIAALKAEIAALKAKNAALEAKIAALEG
# T22: 4H2253-AA
# T22 chain: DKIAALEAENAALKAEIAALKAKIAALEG
# T23: 4H2865-AA
# T23 chain: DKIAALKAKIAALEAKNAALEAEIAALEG
# T24: 4H570-AA
# T24 chain: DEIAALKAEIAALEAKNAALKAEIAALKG
# T25: 4H3395-AA
# T25 chain: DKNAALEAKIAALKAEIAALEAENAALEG
# T26: 4H3016-AA
# T26 chain: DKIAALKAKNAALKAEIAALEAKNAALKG
# T27: 4H485-AA
# T27 chain: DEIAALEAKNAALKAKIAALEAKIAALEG
# T28: 4H384-AA
# T28 chain: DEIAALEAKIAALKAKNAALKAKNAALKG
# T29: 4H909-AA
# T29 chain: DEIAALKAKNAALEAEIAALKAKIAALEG
# T30: 4H536-AA
# T30 chain: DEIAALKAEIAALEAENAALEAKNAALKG
# T31: 4H2649-AA
# T31 chain: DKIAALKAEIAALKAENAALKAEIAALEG
# T32: 4H891-AA
# T32 chain: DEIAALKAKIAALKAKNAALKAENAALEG
# T33: 4H2725-AA
# T33 chain: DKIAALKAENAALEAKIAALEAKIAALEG
# T34: 4H3606-AA
# T34 chain: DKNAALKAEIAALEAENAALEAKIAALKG
# T35: 4H_APH
# T35 chain: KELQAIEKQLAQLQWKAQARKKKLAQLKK
# T36: 4H3631-AA
# T36 chain: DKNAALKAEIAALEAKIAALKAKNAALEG
# T37: 4H697-AA
# T37 chain: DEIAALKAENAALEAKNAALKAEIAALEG
# T38: 4H717-AA
# T38 chain: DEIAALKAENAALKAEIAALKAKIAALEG
# T39: 4H_BCR
# T39 chain: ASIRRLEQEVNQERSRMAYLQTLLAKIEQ
# T40: 4H2611-AA
# T40 chain: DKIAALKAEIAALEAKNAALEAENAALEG
# T41: 4H249-AA
# T41 chain: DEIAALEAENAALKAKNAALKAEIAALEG
# T42: 4H2774-AA
# T42 chain: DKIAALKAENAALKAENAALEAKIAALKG
# Columns and labels:
# Experiment in all cases: two-hybrid library CCmax;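 note: natural log of median RNA to DNA barcode read ratio; higher means stronger binding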
# 4H3165-AA = molecular target: T1, 4H3165-AA; conditions: mean of both orientations
# 4H3009-AA = molecular target: T2, 4H3009-AA; conditions: mean of both orientations
# 4H2698-AA = molecular target: T3, 4H2698-AA
# 4H94-AA = molecular target: T4, 4H94-AA; conditions: mean of both orientations
# 4H3753-AA = molecular target: T5, 4H3753-AA; conditions: mean of both orientations
# 4H3410-AA = molecular target: T6, 4H3410-AA; conditions: mean of both orientations
# 4H3697-AA = molecular target: T7, 4H3697-AA; conditions: mean of both orientations
# 4H3865-AA = molecular target: T8, 4H3865-AA; conditions: mean of both orientations
# 4H458-AA = molecular target: T9, 4H458-AA; conditions: mean of both orientations
# 4H710-AA = molecular target: T10, 4H710-AA; conditions: mean of both orientations
# 4H2473-AA = molecular target: T11, 4H2473-AA; conditions: mean of both orientations
# 4H850-AA = molecular target: T12, 4H850-AA; conditions: mean of both orientations
# 4H310-AA = molecular target: T13, 4H310-AA; conditions: mean of both orientations
# 4H3120-AA = molecular target: T14, 4H3120-AA; conditions: mean of both orientations
# 4H2389-AA = molecular target: T15, 4H2389-AA; conditions: mean of both orientations
# 4H2274-AA = molecular target: T16, 4H2274-AA; conditions: mean of both orientations
# 4H797-AA = molecular target: T17, 4H797-AA; conditions: mean of both orientations
# 4H2330-AA = molecular target: T18, 4H2330-AA; conditions: mean of both orientations
# 4H3590-AA = molecular target: T19, 4H3590-AA; conditions: mean of both orientations
# 4H2438-AA = molecular target: T20, 4H2438-AA; conditions: mean of both orientations
# 4H629-AA = molecular target: T21, 4H629-AA; conditions: mean of both orientations
# 4H2253-AA = molecular target: T22, 4H2253-AA; conditions: mean of both orientations
# 4H2865-AA = molecular target: T23, 4H2865-AA
# 4H570-AA = molecular target: T24, 4H570-AA
# 4H3395-AA = molecular target: T25, 4H3395-AA; conditions: mean of both orientations
# 4H3016-AA = molecular target: T26, 4H3016-AA; conditions: mean of both orientations
# 4H485-AA = molecular target: T27, 4H485-AA; conditions: mean of both orientations
# 4H384-AA = molecular target: T28, 4H384-AA; conditions: mean of both orientations
# 4H909-AA = molecular target: T29, 4H909-AA; conditions: mean of both orientations
# 4H536-AA = molecular target: T30, 4H536-AA; conditions: mean of both orientations
# 4H2649-AA = molecular target: T31, 4H2649-AA; conditions: mean of both orientations
# 4H891-AA = molecular target: T32, 4H891-AA; conditions: mean of both orientations
# 4H2725-AA = molecular target: T33, 4H2725-AA; conditions: mean of both orientations
# 4H3606-AA = molecular target: T34, 4H3606-AA
# 4H_APH = molecular target: T35, 4H_APH
# 4H3631-AA = molecular target: T36, 4H3631-AA; conditions: mean of both orientations
# 4H697-AA = molecular target: T37, 4H697-AA; conditions: mean of both orientations
# 4H717-AA = molecular target: T38, 4H717-AA; conditions: mean of both orientations
# GCN2_T = molecular target: GCN2_T
# 4H_BCR = molecular target: T39, 4H_BCR; conditions: mean of both orientations
# 4H2611-AA = molecular target: T40, 4H2611-AA; conditions: mean of both orientations
# 4H249-AA = molecular target: T41, 4H249-AA; conditions: mean of both orientations
# 4H2774-AA = molecular target: T42, 4H2774-AA; conditions: mean of both orientations
binder,measurement,setting,value
DEIAALEAENAALEAKIAALKAENAALEG [4H171-AA],interaction score,4H3165-AA,-1.21
same,interaction score,4H3009-AA,2.13
same,interaction score,4H2698-AA,-0.616
same,interaction score,4H94-AA,-1.72
same,interaction score,4H3753-AA,-1.25
same,interaction score,4H3410-AA,-0.741
same,interaction score,4H3697-AA,-0.767
same,interaction score,4H3865-AA,-0.476
same,interaction score,4H458-AA,-0.711
same,interaction score,4H710-AA,0.905
same,interaction score,4H2473-AA,-1.21
same,interaction score,4H850-AA,-1.11
same,interaction score,4H310-AA,-1.66
same,interaction score,4H3120-AA,-1.42
same,interaction score,4H2389-AA,-1.07
same,interaction score,4H2274-AA,-1.17
same,interaction score,4H797-AA,-1.36
same,interaction score,4H2330-AA,-2.02
same,interaction score,4H3590-AA,-0.733
same,interaction score,4H2438-AA,0.734
same,interaction score,4H629-AA,-1.29
same,interaction score,4H2253-AA,-1.44
same,interaction score,4H2865-AA,-0.997
same,interaction score,4H570-AA; mean of both orientations,-0.493
same,interaction score,4H3395-AA,-1.24
same,interaction score,4H3016-AA,1.66
same,interaction score,4H485-AA,-0.423
same,interaction score,4H384-AA,-1.36
same,interaction score,4H909-AA,-1.12
same,interaction score,4H536-AA,-1.32
same,interaction score,4H2649-AA,-0.999
same,interaction score,4H891-AA,-0.295
same,interaction score,4H2725-AA,-1.12
DKNAALKAEIAALEAENAALEAKIAALKG [4H3606-AA],interaction score,4H3606-AA,-0.0341
same,interaction score,4H_APH; mean of both orientations,-1.27
same,interaction score,4H3631-AA,-0.831
same,interaction score,4H697-AA,-0.116
same,interaction score,4H3697-AA,1.42
same,interaction score,4H3865-AA,1.86
same,interaction score,4H717-AA,-1.65
same,interaction score,GCN2_T,-0.266
same,interaction score,4H570-AA,-2.43
same,interaction score,4H_BCR,-0.919
same,interaction score,4H384-AA,1.18
DENAALEAKIAALKAKNAALKAEIAALEG [4H1401-AA],interaction score,4H2611-AA,-1.66
same,interaction score,4H3606-AA; mean of both orientations,2.07
same,interaction score,4H_APH; mean of both orientations,-1.86
same,interaction score,4H3631-AA,-1.4
same,interaction score,4H697-AA,-1.39
same,interaction score,4H3697-AA,-0.792
same,interaction score,4H3865-AA,0.227
same,interaction score,4H717-AA,-1.5
same,interaction score,GCN2_T,-1.62
same,interaction score,4H_BCR,-1.64
same,interaction score,4H384-AA,-1.67
DENAALEAENAALKAKIAALKAEIAALEG [4H1257-AA],interaction score,4H_APH; mean of both orientations,-1.94
same,interaction score,4H717-AA,0.282
same,interaction score,GCN2_T,-1.92
same,interaction score,4H249-AA,-1.46
same,interaction score,4H797-AA,-1.57
same,interaction score,4H2774-AA,2.09
same,interaction score,4H_BCR,-2.19
DKIAALEAEIAALKAKNAALEAKIAALEG [4H2165-AA],interaction score,4H3606-AA; mean of both orientations,-0.638
same,interaction score,4H_APH,-1.76
same,interaction score,4H717-AA,-1.25
same,interaction score,GCN2_T,-1.41
same,interaction score,4H249-AA,-1.16
same,interaction score,4H2330-AA,-1.33
same,interaction score,4H2774-AA,-0.839
same,interaction score,4H2253-AA,-1.02
same,interaction score,4H_BCR,-0.379
DENAALKAKIAALEAKNAALEAKIAALEG [4H1845-AA],interaction score,4H2611-AA,-1.56
same,interaction score,4H3606-AA; mean of both orientations,-0.353
same,interaction score,4H3631-AA,-1.57
same,interaction score,4H697-AA,-1.65
same,interaction score,4H3697-AA,-1.83
same,interaction score,4H3865-AA,-1.31
same,interaction score,4H717-AA,-1.01
same,interaction score,4H797-AA,-0.965
same,interaction score,4H384-AA,-1.55
